According to publication PMC10951451 (Current Therapeutic Research, Clinical and Experimental, 2024):
Where two headings read alike, the source gives them in different places.

Assay type: in vivo, Norwegian domestic pigs (Sus scrofa domesticus)
Conditions: for AUC0–∞ with AUC of porcine insulin subtracted: mean (SD)

insulin aspart
AUC0–∞ with AUC of porcine insulin subtracted (glucagon group: 10 IU insulin aspart sc + 100 µg glucagon, n = 6): 7908 (1159) mU/L/min
Median AUC0–∞ plasma insulin concentration (glucagon group: 10 IU insulin aspart sc + 100 µg glucagon): 8419 mU/L/min
AUC0–∞ with AUC of porcine insulin subtracted (placebo group: 10 IU insulin aspart sc + saline, 1 of 6 pigs excluded): 5372 (994) mU/L/min
Median AUC0–∞ plasma insulin concentration (placebo group: 10 IU insulin aspart sc + saline): 6211 mU/L/min
